Test results from article PMC4176334.

Biological target: M. tuberculosis RNAP core;SigB;RbpA (Mycobacterium …, UniProt P9WGZ1;P9WGY9;P9WGY7;P9WGY5;P9WGI5;P9WHJ5 1-347;1-1178;1-1316;1-110;1-323;1-111, ||)
Experiment: EMSA

B1: galP1AA (dsDNA)
DNA 1: GTTTATTCCATGTCACACTTTTCGCATCTTTTCGTTGCTATAATTATTTCATACCAAAAGCCTAATGGAGCG
DNA 2: CGCTCCATTAGGCTTTTGGTATGAAATAATTATAGCAACGAAAAGATGCGAAAAGTGTGACATGGAATAAAC
B1: binds.
